Consider 6 sequences from the supplement of paper PMC5998384.

In data set [1] the test system is HeLa Kyoto. Kind of data set: solubility in G1/S (NP-40 vs SDS abundance) (log2 ratio); higher = more soluble. Conditions: cell cycle stage: G1/S.
The subject of data set [2] is HeLa Kyoto. Kind of data set: melting temperature (median over replicates), in situ; higher = more thermally stable.
Data set [3] deals with HeLa Kyoto. Kind of data set: solubility change mitosis vs G1/S (difference of NP-40 vs SDS log2 ratios) (log2 ratio difference); higher = more soluble in mitosis.
The test system of data set [4] is HeLa Kyoto. Kind of data set: thermal stability score vs G1/S (z-score of summed log2 fold changes over temperatures); higher = more thermally stable than in G1/S.
[5] abbreviates: cell cycle stage: early G1 (4.5 h after nocodazole release).
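Throughout, for melting temperature (median over replicates), in situ: HeLa Kyoto cells synchronized by double thymidine or nocodazole block, proteins quantified by TMT10plex mass spectrometry, three independent biological replicates.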
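Throughout, for solubility change mitosis vs G1/S (difference of NP-40 vs SDS log2 ratios): synchronized HeLa Kyoto cells (double thymidine block for G1/S, nocodazole release for mitosis), protein amounts in NP-40 versus SDS lysates quantified by mass spectrometry, three biological replicates.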
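Throughout, for solubility in G1/S (NP-40 vs SDS abundance): HeLa Kyoto cells arrested at G1/S by double thymidine block, proteins quantified by TMT10plex mass spectrometry in mild NP-40 versus SDS extracts, three biological replicates.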
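Throughout, for thermal stability score vs G1/S (z-score of summed log2 fold changes over temperatures): synchronized HeLa Kyoto cells, proteins quantified by TMT10plex mass spectrometry, three biological replicates, mitosis taken 0.5 h after nocodazole release, G1/S directly after double thymidine block.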

Take “MGKKSRVKTQKSGTGATATVSPKEILNLTSELLQKCSSPAPGPGKEWEEYVQIRTLVEKIRKKQKGLSVTFDGKREDYFPDLMKWASENGASVEGFEMVNFKEEGFGLRATRDIKAEELFLWVPRKLLMTVESAKNSVLGPLYSQDRILQAMGNIALAFHLLCERASPNSFWQPYIQTLPSEYDTPLYFEEDEVRYLQSTQAIHDVFSQYKNTARQYAYFYKVIQTHPHANKLPLKDSFTYEDYRWAVSSVMTRQNQIPTEDGSRVTLALIPLWDMCNHTNGLITTGYNLEDDRCECVALQDFRAGEQIYIFYGTRSNAEFVIHSGFFFDNNSHDRVKIKLGVSKSDRLYAMKAEVLARAGIPTSSVFALHFTEPPISAQLLAFLRVFCMTEEELKEHLLGDSAIDRIFTLGNSEFPVSWDNEVKLWTFLEDRASLLLKTYKTTIEEDKSVLKNHDLSVRAKMAIKLRLGEKEILEKAVKSAAVNREYYRQQMEEKAPLPKYEESNLGLLESSVGDSRLPLVLRNLEEEAGVQDALNIREAISKAKATENGLVNGENSIPNGTRSENESLNQESKRAVEDAKGSSSDSTAGVKE [SETD3]”: in the data set with HeLa Kyoto [1], the “solubility in G1/S (log2)” value is -0.0122. Further, the melting temperature in the data set on HeLa Kyoto [2] (cell cycle stage: G1/S) worked out at 52.8 °C; in the data set with HeLa Kyoto [2] (cell cycle stage: mitosis), 53.5 °C. Besides, the “solubility change mitosis (log2)” value with HeLa Kyoto [3] was -0.0646. Moreover, the thermal stability score in the data set with HeLa Kyoto [4] (setting [5]) came to 1.13; in the data set on HeLa Kyoto [4] (cell cycle stage: mitosis), 1.44.

Regarding “MGKRGSRSQSQLLNTLTKKQKKHLRDFGEEHPFYDRVSRKEAKPQICQLSESSDSSDSESDSESEPQQVSGYHRLLATLKNVSEEEEEDEEEEEEEDSIVDDAEMNDEDGGSDVSVEEEMAAESTESPENVALSADPEGKEDGEEPPGTSQTSPEEFTDAKHESLFSLETNFLEEESGDNSSLKASQDPFLQHVNKELKEKAIQAVATNPKTTHELKWPILGQLFFSSKFQKLETFKPPKDIDLKSLHLQKPLESTWTKTNSQFLSGPQKSSSPFTPLQKELFLIMNSYRDLFYPERTALKNGEEIRHVYCLHVINHILKANAQVLGNNSRRRSQKFGVGDDDDFRDQGLTRPKVLIVVPFREAALRVVQLFISLLEGDSKKKIIVSNKKRFQGEYGSDPEERPPNLKRPEDYEAVFVGNIDDHFRIGVAILQRSIRLYAPFYSSDILIASPLGLRTIIGGEGEKKRDFDFLSSIELLIIDQADIYLMQNWEHVLHLMNHMNLLPLDSHGVDFSRVRMWSLNNWSKYYRQTLLFGALQDAQINSVFNKYCVNMQGQVAVRNVPMTGSISHVLVQLPHVFQRMEAENLASVIDARFNFFVNKILPQYRDAVMSHTLIYIPSYFDFVRLRNYFKKEELNFTHICEYTQKSGVSRARHFFLQGEKQFLLFTERFHFYKRYTIKGIRNLIFYELPTYPHFYSEICNMLRATNRGEEATWTCTVLYSKYDAQRLAAVVGVERAAQMLQSNKNVHLFITGEK [DIEXF]”, the “solubility in G1/S (log2)” value in the data set with HeLa Kyoto [1] was -0.69. Further, the melting temperature is 47.2 °C with HeLa Kyoto [2] (cell cycle stage: G1/S) and 49.3 °C in the data set with HeLa Kyoto [2] (cell cycle stage: mitosis). Moreover, the “solubility change mitosis (log2)” value with HeLa Kyoto [3] was 0.17. Moreover, the thermal stability score in the data set on HeLa Kyoto [4] (setting [5]) came to 0.651; with HeLa Kyoto [4] (cell cycle stage: mitosis) it was 2.11.

On to “MGKSRTKRFKRPQFSPTGDCQAEAAAAANGTGGEEDDGPAAELLEKLQHPSAEVRECACAGLARLVQQRPALPGLARRDAVRRLGPLLLDPSLAVRETAAGALRNLSACGGFEVCDDMVTKDIMTPLVALLKECSAGLDSNEMSLQEKKDQNRNSIENIANETVNVLWNICECSSRAVSIFNKEGCLEIVLKYLSRFPTNVDLAISVAYCLQTVTEDNPELLKSFSATALNMLESALLSPVSSMESLLLKTLVAGTIWNLKDIIPCKSQAEIINALLKILSEVLGMDAGEMVIQMKEAETQRLKTAAEAEEILENTNGDDLIEDDEMEGISHKRRVRRKTFVSDLLPPTDKELRETIALLTAQQTALEIIVNMCCNEDPSDDEWEELSSSDESDAFMENSFSECGGQLFSPLCLSHEVHTALTNYLIPKKIFEKTAFPNSIAVDLCSRNPTWKPLIRKMNTIQCRALFCLQSLVSLLDVEHLGGAAALQTLAQHLSQLLFSQPDFAKHVDFLEAISSALRALLQTMASKNISQCMTPDQLMTLCKAGIHSSNVGVRVNVVSILGITGSVLAKEDGTLETLKNIGCFLLEVTTKDPSLVVAGEALDALFDVFADGKEAERASIQIKLLSALKEFQPVFKMKIRKEGRGNYSTDQLCVLDNVKMNLRRFIAYQETVEKRLTS [HEATR3]”, for which, in the data set on HeLa Kyoto [1], the “solubility in G1/S (log2)” value turned out to be 0.0745. Besides, the melting temperature in the data set on HeLa Kyoto [2] (cell cycle stage: G1/S) stood at 48.7 °C; in the data set with HeLa Kyoto [2] (cell cycle stage: mitosis), 48.8 °C. The “solubility change mitosis (log2)” value in the data set on HeLa Kyoto [3] is -0.138. In addition, the thermal stability score with HeLa Kyoto [4] (setting [5]) amounted to 1.72; with HeLa Kyoto [4] (cell cycle stage: mitosis), 3.45.

Consider “MGKVRGLRARVHQAAVRPKGEAAPGPAPPAPEATPPPASAAGKDWAFINTNIFARTKIDPSALVQKLELDVRSVTSVRRGEAGSSARSVPSIRRGAEAKTVLPKKEKMKLRREQWLQKIEAIKLAEQKHREERRRRATVVVGDLHPLRDALPELLGLEAGSRRQARSRESNKPRPSELSRMSAAQRQQLLEEERTRFQELLASPAYRASPLVAIGQTLARQMQLEDGGQL [FAM207A]”, for which the “solubility in G1/S (log2)” value with HeLa Kyoto [1] was -0.11. Besides, the melting temperature was 48.3 °C in the data set with HeLa Kyoto [2] (cell cycle stage: G1/S) and 48.5 °C in the data set on HeLa Kyoto [2] (cell cycle stage: mitosis). Further, in the data set with HeLa Kyoto [3], the “solubility change mitosis (log2)” value turned out to be 0.342. Further, the thermal stability score amounted to 0.13 in the data set with HeLa Kyoto [4] (setting [5]) and 0.618 in the data set with HeLa Kyoto [4] (cell cycle stage: mitosis).

As for “MGLLRIMMPPKLQLLAVVAFAVAMLFLENQIQKLEESRSKLERAIARHEVREIEQRHTMDGPRQDATLDEEEDMVIIYNRVPKTASTSFTNIAYDLCAKNKYHVLHINTTKNNPVMSLQDQVRFVKNITSWKEMKPGFYHGHVSYLDFAKFGVKKKPIYINVIRDPIERLVSYYYFLRFGDDYRPGLRRRKQGDKKTFDECVAEGGSDCAPEKLWLQIPFFCGHSSECWNVGSRWAMDQAKYNLINEYFLVGVTEELEDFIMLLEAALPRFFRGATELYRTGKKSHLRKTTEKKLPTKQTIAKLQQSDIWKMENEFYEFALEQFQFIRAHAVREKDGDLYILAQNFFYEKIYPKSN [HS2ST1]”, the “solubility in G1/S (log2)” value with HeLa Kyoto [1] worked out at 0.0386. Moreover, the melting temperature turned out to be 55.1 °C with HeLa Kyoto [2] (cell cycle stage: G1/S) and 55.5 °C in the data set on HeLa Kyoto [2] (cell cycle stage: mitosis). Also, in the data set on HeLa Kyoto [3], the “solubility change mitosis (log2)” value is 0.0318. Also, the figures for the thermal stability score in the data set with HeLa Kyoto [4] (setting [5]) and with HeLa Kyoto [4] (cell cycle stage: mitosis) were -0.242 and 0.814, respectively.

As to “MGNAAGSAEQPAGPAAPPPKQPAPPKQPMPAAGELEERFNRALNCMNLPPDKVQLLSQYDNEKKWELICDQERFQVKNPPAAYIQKLKSYVDTGGVSRKVAADWMSNLGFKRRVQESTQVLRELETSLRTNHIGWVQEFLNEENRGLDVLLEYLAFAQCSVTYDMESTDNGASNSEKNKPLEQSVEDLSKGPPSSVPKSRHLTIKLTPAHSRKALRNSRIVSQKDDVHVCIMCLRAIMNYQSGFSLVMNHPACVNEIALSLNNKNPRTKALVLELLAAVCLVRGGHDIILAAFDNFKEVCGEQHRFEKLMEYFRNEDSNIDFMVACMQFINIVVHSVENMNFRVFLQYEFTHLGLDLYLERLRLTESDKLQVQIQAYLDNIFDVGALLEDTETKNAVLEHMEELQEQVALLTERLRDAENESMAKIAELEKQLSQARKELETLRERFSESTAMGPSRRPPEPEKAPPAAPTRPSALELKVEELEEKGLIRILRGPGDAVSIEILPVAVATPSGGDAPTPGVPTGSPSPDLAPAAEPAPGAAPPPPPPLPGLPSPQEAPPSAPPQAPPLPGSPEPPPAPPLPGDLPPPPPPPPPPPGTDGPVPPPPPPPPPPPGGPPDALGRRDSELGPGVKAKKPIQTKFRMPLLNWVALKPSQITGTVFTELNDEKVLQELDMSDFEEQFKTKSQGPSLDLSALKSKAAQKAPSKATLIEANRAKNLAITLRKGNLGAERICQAIEAYDLQALGLDFLELLMRFLPTEYERSLITRFEREQRPMEELSEEDRFMLCFSRIPRLPERMTTLTFLGNFPDTAQLLMPQLNAIIAASMSIKSSDKLRQILEIVLAFGNYMNSSKRGAAYGFRLQSLDALLEMKSTDRKQTLLHYLVKVIAEKYPQLTGFHSDLHFLDKAGSVSLDSVLADVRSLQRGLELTQREFVRQDDCMVLKEFLRANSPTMDKLLADSKTAQEAFESVVEYFGENPKTTSPGLFFSLFSRFIKAYKKAEQEVEQWKKEAAAQEAGADTPGKGEPPAPKSPPKARRPQMDLISELKRRQQKEPLIYESDRDGAIEDIITVIKTVPFTARTGKRTSRLLCEASLGEEMPL [FMNL1]”, the “solubility in G1/S (log2)” value with HeLa Kyoto [1] is 0.507. Moreover, the values for the melting temperature in the data set on HeLa Kyoto [2] (cell cycle stage: G1/S) and in the data set with HeLa Kyoto [2] (cell cycle stage: mitosis) were 47.7 °C and 48.1 °C, respectively. The “solubility change mitosis (log2)” value in the data set with HeLa Kyoto [3] is -0.0294. For the same sequence, the results for the thermal stability score with HeLa Kyoto [4] (setting [5]) and with HeLa Kyoto [4] (cell cycle stage: mitosis) were 1.48 and 2.85, respectively.
